What follows are sequences tested against EPHB1 (UniProt P54762) (assay: phosphorylation enrichment, bacterial display (enrichment ratio); higher = better substrate or ligand; peptides without Tyr show the background).
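Further: 11-residue human phosphosite peptides and single-mutation variants displayed on the E. coli surface, counted by deep sequencing, each peptide's frequency after selection divided by its frequency in the unselected input library; frequency after pTyr selection over input frequency; kinase dosed for 20-30% of maximal phosphorylation in three min.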

Sequence of EPHB1 (P54762 whole entry, looked up): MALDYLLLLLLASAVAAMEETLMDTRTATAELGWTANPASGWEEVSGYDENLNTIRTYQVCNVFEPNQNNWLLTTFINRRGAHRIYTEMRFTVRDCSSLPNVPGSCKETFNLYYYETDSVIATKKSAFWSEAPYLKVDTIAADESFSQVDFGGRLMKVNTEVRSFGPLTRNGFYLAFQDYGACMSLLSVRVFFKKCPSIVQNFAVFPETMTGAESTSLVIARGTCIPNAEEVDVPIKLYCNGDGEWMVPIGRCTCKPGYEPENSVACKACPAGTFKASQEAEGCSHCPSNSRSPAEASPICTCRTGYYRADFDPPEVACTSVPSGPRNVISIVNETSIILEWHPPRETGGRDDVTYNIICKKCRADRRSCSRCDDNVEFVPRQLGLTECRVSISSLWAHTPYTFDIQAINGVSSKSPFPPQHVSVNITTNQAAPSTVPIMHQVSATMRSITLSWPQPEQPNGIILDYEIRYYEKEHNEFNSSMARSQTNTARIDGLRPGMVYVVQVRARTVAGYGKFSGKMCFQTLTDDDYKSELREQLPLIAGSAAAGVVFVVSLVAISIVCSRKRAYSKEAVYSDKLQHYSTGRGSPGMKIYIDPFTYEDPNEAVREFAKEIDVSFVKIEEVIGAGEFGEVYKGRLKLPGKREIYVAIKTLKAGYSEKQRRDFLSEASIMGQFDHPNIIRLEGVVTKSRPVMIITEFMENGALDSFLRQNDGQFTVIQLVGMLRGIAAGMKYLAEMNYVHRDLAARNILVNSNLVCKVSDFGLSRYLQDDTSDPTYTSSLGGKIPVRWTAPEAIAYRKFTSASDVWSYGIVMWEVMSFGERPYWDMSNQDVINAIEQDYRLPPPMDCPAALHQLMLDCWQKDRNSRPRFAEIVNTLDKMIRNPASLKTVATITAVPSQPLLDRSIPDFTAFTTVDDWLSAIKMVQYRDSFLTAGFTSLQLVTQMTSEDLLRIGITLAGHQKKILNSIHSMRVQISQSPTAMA

Sequence	phosphorylation enrichment
YYHCTYKKRMI [CLEC12A_Y242]	0.525
RLLVVYPWTER [HBB_Y36_Q40E]	0.345
YSMGCYEISLG [HMGCL_Y198]	1.56
GADAIYDHINE [UQCR10_Y44]	0.91
LLKKIYLMLDN [STAT1_Y203_M202I]	1.15
GASWRYRSGVS [NEU1_Y242_G243R]	0.388
IRSGIYYKPES [L2HGDH_Y102_H98R]	0.982
ICANKYMVKSC [RPL10_Y75]	0.476
TSNNPYFRDQA [RPGRIP1_Y846_A841T]	0.395
AFLQTYSHEVS [PCDHGA5_Y753]	0.584
HKLSSYEYDFE [BTK_Y40_Y39S]	0.822
SGEKPYKCSEC [ZNF543_Y283]	0.5
WRPFGYPRCRR [BCS1L_Y181_R184C]	0.444
SLAARYYNWVC [FLT4_Y1230_S1235C]	0.907
FAAAGYGSLEA [EPHA10_Y959]	0.403
RENGPYYASYP [GDAP2_Y487_T489A]	1.58
PYTDPYYDYEI [ZC3H18_Y371_A368T]	2.99

Sequence	phosphorylation enrichment
GPQSLYNGLVA [UCP2_Y79_R76Q]	0.477
KWRGQYDVAIE [BTK_Y425_K430E]	0.441
LQTFHYHGHSM [PDHA1_Y289_R288H_YF]	0.322
GSCQEYTGAPF [NAXD_Y85_G81S_YF]	0.628
AEPDIYQEKLS [USP54_Y1233]	0.531
FTNRSYDLDYD [MYC_Y12_N11S]	0.542
GPCKAYELSQR [SETX_Y1297_R1294C]	0.416
GEPLSYTRFSL [TFRC_Y20]	0.438
YVPSNYVAEDR [FRK_Y104_I100V]	0.53
TRSFDYMEGED [FGF7_Y58_G62E_YF]	0.592
MSFDRYMAVCH [OR2A5_Y123_I126V_YF]	0.858
ENAGYYFRISA	0.797
AKKVFYMIETR [SHH_Y253_V254M]	0.606
KIIATYRLCSE [DNAH3_Y1586_V1583I]	0.596
TFVKSYTIHFS [F5_Y2153_M2148T_YF]	0.599
NSRFTYKLEVK [USH2A_Y3747_YF]	0.649

Each sequence was assayed against Hck (UniProt P08631) in the same assay as above.
Sequence of Hck (P08631 whole entry, looked up): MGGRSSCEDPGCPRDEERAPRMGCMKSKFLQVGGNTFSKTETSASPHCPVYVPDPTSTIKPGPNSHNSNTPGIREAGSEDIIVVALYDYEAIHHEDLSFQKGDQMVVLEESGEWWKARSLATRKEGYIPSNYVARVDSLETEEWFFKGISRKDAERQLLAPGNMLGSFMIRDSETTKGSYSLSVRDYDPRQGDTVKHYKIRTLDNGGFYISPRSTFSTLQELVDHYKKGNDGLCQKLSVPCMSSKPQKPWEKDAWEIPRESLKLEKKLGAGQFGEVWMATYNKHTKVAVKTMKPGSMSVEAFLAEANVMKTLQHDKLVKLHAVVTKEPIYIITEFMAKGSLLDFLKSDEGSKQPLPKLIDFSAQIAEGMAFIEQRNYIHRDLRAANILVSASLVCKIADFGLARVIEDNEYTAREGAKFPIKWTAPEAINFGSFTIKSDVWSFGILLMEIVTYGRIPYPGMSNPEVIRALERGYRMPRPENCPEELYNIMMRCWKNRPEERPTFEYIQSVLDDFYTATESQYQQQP

Sequence	phosphorylation enrichment
YYHCTYKKRMI [CLEC12A_Y242]	0.78
RLLVVYPWTER [HBB_Y36_Q40E]	0.618
YSMGCYEISLG [HMGCL_Y198]	1.22
GADAIYDHINE [UQCR10_Y44]	6.65
LLKKIYLMLDN [STAT1_Y203_M202I]	0.85
GASWRYRSGVS [NEU1_Y242_G243R]	0.46
IRSGIYYKPES [L2HGDH_Y102_H98R]	2.6
ICANKYMVKSC [RPL10_Y75]	0.424
TSNNPYFRDQA [RPGRIP1_Y846_A841T]	0.454
AFLQTYSHEVS [PCDHGA5_Y753]	0.551
HKLSSYEYDFE [BTK_Y40_Y39S]	0.952
SGEKPYKCSEC [ZNF543_Y283]	0.531
WRPFGYPRCRR [BCS1L_Y181_R184C]	0.454
SLAARYYNWVC [FLT4_Y1230_S1235C]	0.728
FAAAGYGSLEA [EPHA10_Y959]	0.436
RENGPYYASYP [GDAP2_Y487_T489A]	5.46
PYTDPYYDYEI [ZC3H18_Y371_A368T]	2.43

Sequence	phosphorylation enrichment
GPQSLYNGLVA [UCP2_Y79_R76Q]	3.69
KWRGQYDVAIE [BTK_Y425_K430E]	0.509
LQTFHYHGHSM [PDHA1_Y289_R288H_YF]	0.533
GSCQEYTGAPF [NAXD_Y85_G81S_YF]	0.509
AEPDIYQEKLS [USP54_Y1233]	0.702
FTNRSYDLDYD [MYC_Y12_N11S]	0.632
GPCKAYELSQR [SETX_Y1297_R1294C]	0.467
GEPLSYTRFSL [TFRC_Y20]	0.52
YVPSNYVAEDR [FRK_Y104_I100V]	0.382
TRSFDYMEGED [FGF7_Y58_G62E_YF]	0.738
MSFDRYMAVCH [OR2A5_Y123_I126V_YF]	0.638
ENAGYYFRISA	0.534
AKKVFYMIETR [SHH_Y253_V254M]	0.444
KIIATYRLCSE [DNAH3_Y1586_V1583I]	0.462
TFVKSYTIHFS [F5_Y2153_M2148T_YF]	0.424
NSRFTYKLEVK [USH2A_Y3747_YF]	0.475

— the supplement of paper PMC10065799, “High-throughput profiling of sequence recognition by tyrosine kinases and SH2 domains using bacterial peptide display” (eLife, 2023)
